Laboratory results as given in patent publication US20190185537A1 (AstraZeneca / MedImmune, published 2019).
Numbered stars: 1 amine (or outer) side, 2 acyl side, 3 side chain; on linkers, the order of the positions; unused ones are H or OH. Side chains are listed from the residue outwards. Ends that are not written are not given here. * marks the point of attachment. γGlu = O=C(O)[C@H](CCC(=O)[*:2])N[*:1]; Palmitoyl = CCCCCCCCCCCCCCCC(=O)*; Ahx = NCCCCCC(=O)O; βAla = NCCC(=O)O

T1: human glucose-dependent insulinotropic peptide (gastric inhibitory polypeptide) receptor (human) (UniProt P48546)
T1 sequence (looked up): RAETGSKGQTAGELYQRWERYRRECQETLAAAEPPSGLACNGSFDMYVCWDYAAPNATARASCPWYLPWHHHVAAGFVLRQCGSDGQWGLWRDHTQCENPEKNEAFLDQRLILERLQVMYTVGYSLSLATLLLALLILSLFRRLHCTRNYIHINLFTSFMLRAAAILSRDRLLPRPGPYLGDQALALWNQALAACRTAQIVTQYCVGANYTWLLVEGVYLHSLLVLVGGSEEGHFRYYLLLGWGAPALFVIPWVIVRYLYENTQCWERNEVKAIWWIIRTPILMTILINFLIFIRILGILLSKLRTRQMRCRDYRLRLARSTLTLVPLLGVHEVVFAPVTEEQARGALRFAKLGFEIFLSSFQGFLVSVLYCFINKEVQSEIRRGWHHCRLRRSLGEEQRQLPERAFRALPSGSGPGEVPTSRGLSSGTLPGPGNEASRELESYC


Columns and labels:
Experiment in all cases: cell-based or functional assay
[1] = target: T1, human glucose-dependent insulinotropic peptide (gastric inhibitory polypeptide) receptor (human)
[2] = target: human glucagon receptor (human, UniProt P47871 26-477)
[3] = target: human GLP-1 receptor (human, UniProt P43220 24-463)
human GLP-1 receptor, sequence (P43220 24-463): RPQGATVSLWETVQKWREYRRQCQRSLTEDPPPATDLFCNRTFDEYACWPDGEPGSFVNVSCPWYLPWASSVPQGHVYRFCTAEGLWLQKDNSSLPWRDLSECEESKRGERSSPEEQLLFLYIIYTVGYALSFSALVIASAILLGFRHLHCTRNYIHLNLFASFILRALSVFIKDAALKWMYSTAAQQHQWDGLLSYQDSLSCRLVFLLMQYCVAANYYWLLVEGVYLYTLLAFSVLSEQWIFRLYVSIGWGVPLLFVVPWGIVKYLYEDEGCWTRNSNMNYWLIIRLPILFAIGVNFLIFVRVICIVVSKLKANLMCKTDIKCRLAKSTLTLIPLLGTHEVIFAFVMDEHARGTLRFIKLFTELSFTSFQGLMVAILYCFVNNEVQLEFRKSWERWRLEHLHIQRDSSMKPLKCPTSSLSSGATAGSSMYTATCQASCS

human glucagon receptor, sequence (P47871 26-477): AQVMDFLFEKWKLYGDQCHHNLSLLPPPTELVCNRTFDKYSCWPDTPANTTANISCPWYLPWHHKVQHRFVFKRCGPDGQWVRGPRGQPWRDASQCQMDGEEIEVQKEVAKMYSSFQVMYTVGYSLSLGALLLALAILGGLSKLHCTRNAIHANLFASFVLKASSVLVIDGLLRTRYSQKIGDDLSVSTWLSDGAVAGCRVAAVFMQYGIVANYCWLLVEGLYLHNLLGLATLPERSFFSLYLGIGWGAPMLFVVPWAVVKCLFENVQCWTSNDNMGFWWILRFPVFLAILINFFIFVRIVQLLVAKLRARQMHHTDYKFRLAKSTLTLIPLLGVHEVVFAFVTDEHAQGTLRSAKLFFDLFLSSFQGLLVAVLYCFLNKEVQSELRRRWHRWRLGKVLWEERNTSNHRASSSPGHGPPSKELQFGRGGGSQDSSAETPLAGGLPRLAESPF

Binder | cAMP EC50 (assay 1) [1] [nM] | cAMP EC50 (assay 1) [2] [nM] | cAMP EC50 (assay 1) [3] [nM]
HSEGTFTSDYSEYLDSK([βAla-Palmitoyl])RARDFVAWLEAGG-NH2 (N-terminus assumed; SMILES CCCCCCCCCCCCCCCC(=O)NCCC(=O)NCCCC[C@H](NC(=O)[C@H](CO)NC(=O)[C@H](CC(=O)O)NC(=O)[C@H](CC(C)C)NC(=O)[C@H](Cc1ccc(O)cc1)NC(=O)[C@H](CCC(=O)O)NC(=O)[C@H](CO)NC(=O)[C@H](Cc1ccc(O)cc1)NC(=O)[C@H](CC(=O)O)NC(=O)[C@H](CO)NC(=O)[C@@H](NC(=O)[C@H](Cc1ccccc1)NC(=O)[C@@H](NC(=O)CNC(=O)[C@H](CCC(=O)O)NC(=O)[C@H](CO)NC(=O)[C@@H](N)Cc1c[nH]cn1)[C@@H](C)O)[C@@H](C)O)C(=O)N[C@@H](CCCNC(=N)N)C(=O)N[C@@H](C)C(=O)N[C@@H](CCCNC(=N)N)C(=O)N[C@@H](CC(=O)O)C(=O)N[C@@H](Cc1ccccc1)C(=O)N[C@H](C(=O)N[C@@H](C)C(=O)N[C@@H](Cc1c[nH]c2ccccc12)C(=O)N[C@@H](CC(C)C)C(=O)N[C@@H](CCC(=O)O)C(=O)N[C@@H](C)C(=O)NCC(=O)NCC(N)=O)C(C)C) [g734] | 1170 | 82.8 | 0.0695
HSEGTFTSDYSKYLDSK([γGlu-Palmitoyl])RAQDFVQWLEAGG-NH2 (N-terminus assumed; SMILES CCCCCCCCCCCCCCCC(=O)N[C@@H](CCC(=O)NCCCC[C@H](NC(=O)[C@H](CO)NC(=O)[C@H](CC(=O)O)NC(=O)[C@H](CC(C)C)NC(=O)[C@H](Cc1ccc(O)cc1)NC(=O)[C@H](CCCCN)NC(=O)[C@H](CO)NC(=O)[C@H](Cc1ccc(O)cc1)NC(=O)[C@H](CC(=O)O)NC(=O)[C@H](CO)NC(=O)[C@@H](NC(=O)[C@H](Cc1ccccc1)NC(=O)[C@@H](NC(=O)CNC(=O)[C@H](CCC(=O)O)NC(=O)[C@H](CO)NC(=O)[C@@H](N)Cc1c[nH]cn1)[C@@H](C)O)[C@@H](C)O)C(=O)N[C@@H](CCCNC(=N)N)C(=O)N[C@@H](C)C(=O)N[C@@H](CCC(N)=O)C(=O)N[C@@H](CC(=O)O)C(=O)N[C@@H](Cc1ccccc1)C(=O)N[C@H](C(=O)N[C@@H](CCC(N)=O)C(=O)N[C@@H](Cc1c[nH]c2ccccc12)C(=O)N[C@@H](CC(C)C)C(=O)N[C@@H](CCC(=O)O)C(=O)N[C@@H](C)C(=O)NCC(=O)NCC(N)=O)C(C)C)C(=O)O) [g513] | 298 | 0.723 | 0.175
HSQGTFTSDYSEYLDSK([βAla-Palmitoyl])RARDFVAWLEAGG-NH2 (N-terminus assumed; SMILES CCCCCCCCCCCCCCCC(=O)NCCC(=O)NCCCC[C@H](NC(=O)[C@H](CO)NC(=O)[C@H](CC(=O)O)NC(=O)[C@H](CC(C)C)NC(=O)[C@H](Cc1ccc(O)cc1)NC(=O)[C@H](CCC(=O)O)NC(=O)[C@H](CO)NC(=O)[C@H](Cc1ccc(O)cc1)NC(=O)[C@H](CC(=O)O)NC(=O)[C@H](CO)NC(=O)[C@@H](NC(=O)[C@H](Cc1ccccc1)NC(=O)[C@@H](NC(=O)CNC(=O)[C@H](CCC(N)=O)NC(=O)[C@H](CO)NC(=O)[C@@H](N)Cc1c[nH]cn1)[C@@H](C)O)[C@@H](C)O)C(=O)N[C@@H](CCCNC(=N)N)C(=O)N[C@@H](C)C(=O)N[C@@H](CCCNC(=N)N)C(=O)N[C@@H](CC(=O)O)C(=O)N[C@@H](Cc1ccccc1)C(=O)N[C@H](C(=O)N[C@@H](C)C(=O)N[C@@H](Cc1c[nH]c2ccccc12)C(=O)N[C@@H](CC(C)C)C(=O)N[C@@H](CCC(=O)O)C(=O)N[C@@H](C)C(=O)NCC(=O)NCC(N)=O)C(C)C) [g783] | 846 | 0.0911 | 0.0424
HGQGTFTSDYSKYLDSK([γGlu-Palmitoyl])RAQDFVQWLERGG-NH2 (N-terminus assumed; SMILES CCCCCCCCCCCCCCCC(=O)N[C@@H](CCC(=O)NCCCC[C@H](NC(=O)[C@H](CO)NC(=O)[C@H](CC(=O)O)NC(=O)[C@H](CC(C)C)NC(=O)[C@H](Cc1ccc(O)cc1)NC(=O)[C@H](CCCCN)NC(=O)[C@H](CO)NC(=O)[C@H](Cc1ccc(O)cc1)NC(=O)[C@H](CC(=O)O)NC(=O)[C@H](CO)NC(=O)[C@@H](NC(=O)[C@H](Cc1ccccc1)NC(=O)[C@@H](NC(=O)CNC(=O)[C@H](CCC(N)=O)NC(=O)CNC(=O)[C@@H](N)Cc1c[nH]cn1)[C@@H](C)O)[C@@H](C)O)C(=O)N[C@@H](CCCNC(=N)N)C(=O)N[C@@H](C)C(=O)N[C@@H](CCC(N)=O)C(=O)N[C@@H](CC(=O)O)C(=O)N[C@@H](Cc1ccccc1)C(=O)N[C@H](C(=O)N[C@@H](CCC(N)=O)C(=O)N[C@@H](Cc1c[nH]c2ccccc12)C(=O)N[C@@H](CC(C)C)C(=O)N[C@@H](CCC(=O)O)C(=O)N[C@@H](CCCNC(=N)N)C(=O)NCC(=O)NCC(N)=O)C(C)C)C(=O)O) [g588] | 98 | 0.0723 | 0.11
HSQGTFTSDYSKYLDSK([βAla-Palmitoyl])RARDFVAWLEAGG-NH2 (N-terminus assumed; SMILES CCCCCCCCCCCCCCCC(=O)NCCC(=O)NCCCC[C@H](NC(=O)[C@H](CO)NC(=O)[C@H](CC(=O)O)NC(=O)[C@H](CC(C)C)NC(=O)[C@H](Cc1ccc(O)cc1)NC(=O)[C@H](CCCCN)NC(=O)[C@H](CO)NC(=O)[C@H](Cc1ccc(O)cc1)NC(=O)[C@H](CC(=O)O)NC(=O)[C@H](CO)NC(=O)[C@@H](NC(=O)[C@H](Cc1ccccc1)NC(=O)[C@@H](NC(=O)CNC(=O)[C@H](CCC(N)=O)NC(=O)[C@H](CO)NC(=O)[C@@H](N)Cc1c[nH]cn1)[C@@H](C)O)[C@@H](C)O)C(=O)N[C@@H](CCCNC(=N)N)C(=O)N[C@@H](C)C(=O)N[C@@H](CCCNC(=N)N)C(=O)N[C@@H](CC(=O)O)C(=O)N[C@@H](Cc1ccccc1)C(=O)N[C@H](C(=O)N[C@@H](C)C(=O)N[C@@H](Cc1c[nH]c2ccccc12)C(=O)N[C@@H](CC(C)C)C(=O)N[C@@H](CCC(=O)O)C(=O)N[C@@H](C)C(=O)NCC(=O)NCC(N)=O)C(C)C) [g819] | 103 | 0.00234 | 0.018

Next, values leading:

cAMP EC50 (assay 1) [1] [nM] | cAMP EC50 (assay 1) [2] [nM] | cAMP EC50 (assay 1) [3] [nM] | Binder
114 | 0.213 | 0.467 | HSQGTFTSDYSEYLDSK([γGlu-Palmitoyl])RARDFVAWLEAGG-NH2 (N-terminus assumed; SMILES CCCCCCCCCCCCCCCC(=O)N[C@@H](CCC(=O)NCCCC[C@H](NC(=O)[C@H](CO)NC(=O)[C@H](CC(=O)O)NC(=O)[C@H](CC(C)C)NC(=O)[C@H](Cc1ccc(O)cc1)NC(=O)[C@H](CCC(=O)O)NC(=O)[C@H](CO)NC(=O)[C@H](Cc1ccc(O)cc1)NC(=O)[C@H](CC(=O)O)NC(=O)[C@H](CO)NC(=O)[C@@H](NC(=O)[C@H](Cc1ccccc1)NC(=O)[C@@H](NC(=O)CNC(=O)[C@H](CCC(N)=O)NC(=O)[C@H](CO)NC(=O)[C@@H](N)Cc1c[nH]cn1)[C@@H](C)O)[C@@H](C)O)C(=O)N[C@@H](CCCNC(=N)N)C(=O)N[C@@H](C)C(=O)N[C@@H](CCCNC(=N)N)C(=O)N[C@@H](CC(=O)O)C(=O)N[C@@H](Cc1ccccc1)C(=O)N[C@H](C(=O)N[C@@H](C)C(=O)N[C@@H](Cc1c[nH]c2ccccc12)C(=O)N[C@@H](CC(C)C)C(=O)N[C@@H](CCC(=O)O)C(=O)N[C@@H](C)C(=O)NCC(=O)NCC(N)=O)C(C)C)C(=O)O) [g837]
84.3 | 0.00568 | 0.0237 | HSQGTFTSDYSEYLDSK([Ahx-Palmitoyl])RARDFVAWLEAGG-NH2 (N-terminus assumed; SMILES CCCCCCCCCCCCCCCC(=O)NCCCCCC(=O)NCCCC[C@H](NC(=O)[C@H](CO)NC(=O)[C@H](CC(=O)O)NC(=O)[C@H](CC(C)C)NC(=O)[C@H](Cc1ccc(O)cc1)NC(=O)[C@H](CCC(=O)O)NC(=O)[C@H](CO)NC(=O)[C@H](Cc1ccc(O)cc1)NC(=O)[C@H](CC(=O)O)NC(=O)[C@H](CO)NC(=O)[C@@H](NC(=O)[C@H](Cc1ccccc1)NC(=O)[C@@H](NC(=O)CNC(=O)[C@H](CCC(N)=O)NC(=O)[C@H](CO)NC(=O)[C@@H](N)Cc1c[nH]cn1)[C@@H](C)O)[C@@H](C)O)C(=O)N[C@@H](CCCNC(=N)N)C(=O)N[C@@H](C)C(=O)N[C@@H](CCCNC(=N)N)C(=O)N[C@@H](CC(=O)O)C(=O)N[C@@H](Cc1ccccc1)C(=O)N[C@H](C(=O)N[C@@H](C)C(=O)N[C@@H](Cc1c[nH]c2ccccc12)C(=O)N[C@@H](CC(C)C)C(=O)N[C@@H](CCC(=O)O)C(=O)N[C@@H](C)C(=O)NCC(=O)NCC(N)=O)C(C)C) [g838]
86.7 | 0.00367 | 0.0191 | HSQGTFTSDYSEYLDSK([Ahx-Palmitoyl])RARDFVEWLENT-NH2 (not fully specified) [g825]
